Reference: IntAct's records for PubMed 11781565

B1: Cell division cycle-related protein res1/sct1 (Schizosaccharomyces pombe (strain ATCC 38366 / 972)), P33520 (parent)
chain: MYNDQIHKITYSGVEVFEYTINGFPLMKRCHDNWLNATQILKIAELDKPRRTRILEKFAQKGLHEKIQGGCGKYQGTWVPSERAVELAHEYNVFDLIQPLIEYSGSAFMPMSTFTPQSNRKPTEAYRRNSPVKKSFSRPSHSLLYPYTSSNNMTSTSRMSGIHDALSLQSDFTRSPDMPSDSFTGSLHDIKASPFSSNNYAQSLLDYFLLPNTTQPPDFVYDRPSDWDVNAGIDEDGHTALHWAAAMGNLEMMHALLQAGANVVAVNYLQQTSLMRCVMFTMNYDLQTFEVVSELLQSAICMNDSFGQTVFHHIALLASSKSKMEAARYYMDILLQNLTATQSVDVAAQIINLQDDHGDTALLICARNGAKKCARLLLSFYASSSIPNNQGQYPTDFLSSKDMSFPENDDSPLNSKIEDNLIDNLKYPQSLDDHLSSKKPISYFSNKLTHQTLPNVFTQLSELSKCHEASLAEKQLTYNLAMEALEQTVRETETCQRLWNERTNNDENYLVNQREDLIHQCKKFLHTLKTARYYLETVQLHQLKKYVTYFSQIWSTDELADISETKNLVGHDTKTNRSSLSSKHEVDLFTAENEAAREKLVEQLCSLQAQRKQKINEILNLLSMGMYNTINTDQSGS
partner: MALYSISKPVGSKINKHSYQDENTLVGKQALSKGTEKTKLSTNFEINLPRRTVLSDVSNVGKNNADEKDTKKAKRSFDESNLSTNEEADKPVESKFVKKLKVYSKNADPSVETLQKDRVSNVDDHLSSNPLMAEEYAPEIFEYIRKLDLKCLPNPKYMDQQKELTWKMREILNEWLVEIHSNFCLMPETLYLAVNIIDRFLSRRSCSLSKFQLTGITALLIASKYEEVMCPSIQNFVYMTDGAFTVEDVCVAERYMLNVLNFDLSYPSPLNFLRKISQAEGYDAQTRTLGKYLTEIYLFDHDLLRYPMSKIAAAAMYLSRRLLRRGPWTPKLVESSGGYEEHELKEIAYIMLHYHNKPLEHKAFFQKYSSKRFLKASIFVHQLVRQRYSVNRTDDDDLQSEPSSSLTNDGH

Variants of: B1
Settings: with cg22_schpo cig2, P36630

Row | effect of a mutation on the interaction | Variant
1 | increasing interaction | S130A

Variants of: B1
Settings: with cg22_schpo cig2, P36630
Remark: another data set of the same source

Row | effect of a mutation on the interaction | Variant
2 | disrupting interaction | S130A
